Source: PMC10783506

Tests used:
[1] = tested on: LGP2 (insect-cell expressed) (Homo sapiens); assay: fluorescence polarization; conditions: Buffer A: 50 mM MOPS pH 7.4, 5 mM MgCl2, 5 mM DTT, 0.05 mM BSA, 0.01% Tween20, 0-100 mM NaCl (or KCl), with or without ATP, EMSA at 4 C, stopped-flow at 25 C …
RIG-I = assay: EMSA; conditions: 60 nM protein, 20 nM RNA, monovalent streptavidin; mainly monomer; m7G cap and 2'-O-methyl on first nucleotide (Cap1); biotin at distal end; Buffer A: 50 mM MOPS pH 7.4, 5 mM MgCl2, 5 mM DTT, 0.05 mM BSA, 0.01% Tween20; 0-100 mM NaCl (or KCl), with or without ATP; EMSA at 4 C, stopped-flow at 25 C …

3'-overhang HP RNA
binding signal (fold Kd vs 5'OH blunt HP) ([1]; 100 mM KCl): 10

5'OH blunt HP RNA
Kd ([1]; 5'OH): 10 nM

5'ppp blunt HP RNA
Kd ([1]; 5'ppp): 10 nM

Cap1 ds27 RNA-biotin
binding signal (RIG-I): 50 % RNA bound

ds16 DNA
Kd ([1]; 0 mM NaCl, ATP had little effect on Kd): 200 nM

stem ds26 RNA
Kd ([1]; 0 mM NaCl, ATP without effect, 17 bp dsRNA flanked by 4 bp dsDNA ends): 80 nM
